Laboratory results from PMC4577212, “X-Ray Structure and Mutagenesis Studies of the N-Isopropylammelide Isopropylaminohydrolase, AtzC” (PLoS ONE, 2015).

Substrate: Nc1nc(O)nc(O)n1
Experiment: purified protein
Conditions: 200 mM sodium phosphate pH 7.5, glycerol, 301 K, 28.0 °C

B1: AtzC (N-isopropylammelide isopropylaminohydrolase) (Pseudomonas sp. ADP) (protein)
chain: MSKDFDLIIRNAYLSEKDSVYDIGIVGDRIIKIEAKIEGTVKDEIDAKGNLVSPGFVDAHTHMDKSFTSTGERLPKFWSRPYTRDAAIEDGLKYYKNATHEEIKRHVIEHAHMQVLHGTLYTRTHVDVDSVAKTKAVEAVLEAKEELKDLIDIQVVAFAQSGFFVDLESESLIRKSLDMGCDLVGGVDPATRENNVEGSLDLCFKLAKEYDVDIDYHIHDIGTVGVYSINRLAQKTIENGYKGRVTTSHAWCFADAPSEWLDEAIPLYKDSGMKFVTCFSSTPPTMPVIKLLEAGINLGCASDNIRDFWVPFGNGDMVQGALIETQRLELKTNRDLGLIWKMITSEGARVLGIEKNYGIEVGKKADLVVLNSLSPQWAIIDQAKRLCVIKNGRIIVKDEVIVA
  Km: 3.1 ± 0.2 mM
  kcat: 26.2 ± 1.8 s⁻¹
  kcat/Km: 8500 M⁻¹ s⁻¹
